Source: the supplement of paper PMC9112550, “Optimization of the antimicrobial peptide Bac7 by deep mutational scanning” (BMC Biology, 2022)

Tested on: Escherichia coli TOP10
Test: shrunken log2 fold change of peptide-encoding DNA abundance (4.5 h post-induction vs induction); higher = less antimicrobial activity (less host growth inhibition)
Conditions: time post-induction: 4.5 h; library: site-saturation at positions 5, 18, 19, 20
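Further: peptides expressed intracellularly from a pBAD plasmid library in pooled LB shake-flask culture, induced with 0.3% L-arabinose, DNA abundance read by NGS, three biological replicates, DESeq2 with apeglm shrinkage.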

Sequence	shrunken log2 fold change
RRIRRRPPRLPRPRPRPCGSPRP	0.0143
RRIRRRPPRLPRPRPRPCHDPRP	-0.105
RRIRRRPPRLPRPRPRPCKHPRP	0.00883
RRIRRRPPRLPRPRPRPCLLPRP	-0.335
RRIRRRPPRLPRPRPRPCLNPRP	-0.4
RRIRRRPPRLPRPRPRPCMFPRP	-0.0745
RRIRRRPPRLPRPRPRPCMRPRP	0.264
RRIRRRPPRLPRPRPRPCNDPRP	-0.0872
RRIRRRPPRLPRPRPRPCNIPRP	-0.373
RRIRRRPPRLPRPRPRPCQVPRP	0.0476
RRIRRRPPRLPRPRPRPCRAPRP	0.182
RRIRRRPPRLPRPRPRPCSNPRP	-0.166
RRIRRRPPRLPRPRPRPCSTPRP	0.0875
RRIRRRPPRLPRPRPRPCTKPRP	-0.147
RRIRRRPPRLPRPRPRPCTQPRP	0.207
RRIRRRPPRLPRPRPRPCTRPRP	0.0341
RRIRRRPPRLPRPRPRPCTSPRP	0.0211
RRIRRRPPRLPRPRPRPCVWPRP	0.999
RRIRRRPPRLPRPRPRPCYKPRP	-0.202
RRIRRRPPRLPRPRPRPCYLPRP	-0.499
RRIRRRPPRLPRPRPRPDAAPRP	1.44
RRIRRRPPRLPRPRPRPDAEPRP	1.62
RRIRRRPPRLPRPRPRPDATPRP	1.32
RRIRRRPPRLPRPRPRPDDQPRP	0.167
RRIRRRPPRLPRPRPRPDGKPRP	0.0432

Sequence	shrunken log2 fold change
RRIRRRPPRLPRPRPRPDGMPRP	0.0388
RRIRRRPPRLPRPRPRPDHAPRP	0.0467
RRIRRRPPRLPRPRPRPDHVPRP	0.101
RRIRRRPPRLPRPRPRPDIGPRP	-0.0303
RRIRRRPPRLPRPRPRPDIWPRP	0.418
RRIRRRPPRLPRPRPRPDKEPRP	0.0257
RRIRRRPPRLPRPRPRPDKGPRP	-0.0101
RRIRRRPPRLPRPRPRPDLFPRP	0.41
RRIRRRPPRLPRPRPRPDLKPRP	0.162
RRIRRRPPRLPRPRPRPDMSPRP	-0.433
RRIRRRPPRLPRPRPRPDPFPRP	0.1
RRIRRRPPRLPRPRPRPDPIPRP	0.227
RRIRRRPPRLPRPRPRPDQRPRP	-0.0913
RRIRRRPPRLPRPRPRPDQTPRP	0.0174
RRIRRRPPRLPRPRPRPDRGPRP	-0.216
RRIRRRPPRLPRPRPRPDSEPRP	0.036
RRIRRRPPRLPRPRPRPDSQPRP	0.157
RRIRRRPPRLPRPRPRPDWMPRP	0.0919
RRIRRRPPRLPRPRPRPDYMPRP	-0.384
RRIRRRPPRLPRPRPRPEACPRP	0.463
RRIRRRPPRLPRPRPRPEANPRP	0.78
RRIRRRPPRLPRPRPRPECFPRP	0.3
RRIRRRPPRLPRPRPRPEDCPRP	-0.0482
RRIRRRPPRLPRPRPRPEEPPRP	0.24
RRIRRRPPRLPRPRPRPEEVPRP	0.0988

Sequence	shrunken log2 fold change
RRIRRRPPRLPRPRPRPEFEPRP	0.37
RRIRRRPPRLPRPRPRPEFGPRP	0.376
RRIRRRPPRLPRPRPRPEFTPRP	0.0132
RRIRRRPPRLPRPRPRPEGHPRP	0.488
RRIRRRPPRLPRPRPRPEGPPRP	0.568
RRIRRRPPRLPRPRPRPEHTPRP	-0.0248
RRIRRRPPRLPRPRPRPEMHPRP	0.705
RRIRRRPPRLPRPRPRPEPHPRP	0.315
RRIRRRPPRLPRPRPRPEQKPRP	0.0588
RRIRRRPPRLPRPRPRPEQRPRP	0.272
RRIRRRPPRLPRPRPRPEQTPRP	-0.01
RRIRRRPPRLPRPRPRPEQYPRP	0.17
RRIRRRPPRLPRPRPRPESRPRP	0.0681
RRIRRRPPRLPRPRPRPEVGPRP	0.946
RRIRRRPPRLPRPRPRPEVNPRP	-0.0845
RRIRRRPPRLPRPRPRPEWTPRP	0.0215
RRIRRRPPRLPRPRPRPEYEPRP	-0.022
RRIRRRPPRLPRPRPRPFAVPRP	0.0874
RRIRRRPPRLPRPRPRPFCSPRP	-0.0439
RRIRRRPPRLPRPRPRPFEAPRP	1.04
RRIRRRPPRLPRPRPRPFFCPRP	0.167
RRIRRRPPRLPRPRPRPFFEPRP	0.18
RRIRRRPPRLPRPRPRPFGKPRP	0.0788
RRIRRRPPRLPRPRPRPFLAPRP	0.925
RRIRRRPPRLPRPRPRPFLEPRP	0.0277

Sequence	shrunken log2 fold change
RRIRRRPPRLPRPRPRPFMIPRP	-0.394
RRIRRRPPRLPRPRPRPFMLPRP	0.0692
RRIRRRPPRLPRPRPRPFPEPRP	0.212
RRIRRRPPRLPRPRPRPFQCPRP	-0.00197
RRIRRRPPRLPRPRPRPFQPPRP	0.331
RRIRRRPPRLPRPRPRPFRSPRP	-0.0534
RRIRRRPPRLPRPRPRPFSKPRP	-0.348
RRIRRRPPRLPRPRPRPFSSPRP	-0.0604
RRIRRRPPRLPRPRPRPFSYPRP	0.016
RRIRRRPPRLPRPRPRPFTIPRP	0.0518
RRIRRRPPRLPRPRPRPFWEPRP	-0.0438
RRIRRRPPRLPRPRPRPFWGPRP	0.463
RRIRRRPPRLPRPRPRPFWVPRP	0.236
RRIRRRPPRLPRPRPRPFYCPRP	-0.162
RRIRRRPPRLPRPRPRPGCIPRP	0.0498
RRIRRRPPRLPRPRPRPGDQPRP	0.272
RRIRRRPPRLPRPRPRPGEEPRP	0.139
RRIRRRPPRLPRPRPRPGENPRP	0.066
RRIRRRPPRLPRPRPRPGFFPRP	0.268
RRIRRRPPRLPRPRPRPGFLPRP	-0.0551
RRIRRRPPRLPRPRPRPGFTPRP	0.00987
RRIRRRPPRLPRPRPRPGGHPRP	0.499
RRIRRRPPRLPRPRPRPGGYPRP	-0.0378
RRIRRRPPRLPRPRPRPGHAPRP	0.398
RRIRRRPPRLPRPRPRPGIDPRP	-0.0704

Sequence	shrunken log2 fold change
RRIRRRPPRLPRPRPRPGIFPRP	-0.174
RRIRRRPPRLPRPRPRPGIMPRP	0.156
RRIRRRPPRLPRPRPRPGIPPRP	0.322
RRIRRRPPRLPRPRPRPGIRPRP	0.108
RRIRRRPPRLPRPRPRPGLKPRP	0.377
RRIRRRPPRLPRPRPRPGNWPRP	0.393
RRIRRRPPRLPRPRPRPGPMPRP	0.353
RRIRRRPPRLPRPRPRPGPQPRP	0.337
RRIRRRPPRLPRPRPRPGQIPRP	0.0802
RRIRRRPPRLPRPRPRPGQVPRP	0.239
RRIRRRPPRLPRPRPRPGRIPRP	0.0214
RRIRRRPPRLPRPRPRPGRLPRP	0.728
RRIRRRPPRLPRPRPRPGRTPRP	0.315
RRIRRRPPRLPRPRPRPGSNPRP	0.0402
RRIRRRPPRLPRPRPRPGTCPRP	-0.087
RRIRRRPPRLPRPRPRPGTSPRP	0.0636
RRIRRRPPRLPRPRPRPGVQPRP	-0.00257
RRIRRRPPRLPRPRPRPGWHPRP	0.176
RRIRRRPPRLPRPRPRPGWVPRP	0.359
RRIRRRPPRLPRPRPRPGYRPRP	-0.119
RRIRRRPPRLPRPRPRPHAEPRP	0.317
RRIRRRPPRLPRPRPRPHAPPRP	0.353
RRIRRRPPRLPRPRPRPHCQPRP	0.17
RRIRRRPPRLPRPRPRPHCSPRP	-0.0453
RRIRRRPPRLPRPRPRPHCVPRP	-0.0665

Sequence	shrunken log2 fold change
RRIRRRPPRLPRPRPRPHDVPRP	0.0619
RRIRRRPPRLPRPRPRPHEDPRP	0.0653
RRIRRRPPRLPRPRPRPHEIPRP	-0.0745
RRIRRRPPRLPRPRPRPHENPRP	-0.019
RRIRRRPPRLPRPRPRPHGEPRP	0.0136
RRIRRRPPRLPRPRPRPHHPPRP	-0.0853
RRIRRRPPRLPRPRPRPHHQPRP	-0.086
RRIRRRPPRLPRPRPRPHIFPRP	-0.019
RRIRRRPPRLPRPRPRPHLLPRP	-0.0838
RRIRRRPPRLPRPRPRPHLRPRP	0.298
RRIRRRPPRLPRPRPRPHLSPRP	0.112
RRIRRRPPRLPRPRPRPHMWPRP	-0.0704
RRIRRRPPRLPRPRPRPHPKPRP	0.474
RRIRRRPPRLPRPRPRPHQNPRP	0.769
RRIRRRPPRLPRPRPRPHRWPRP	0.409
RRIRRRPPRLPRPRPRPHSDPRP	-0.0198
RRIRRRPPRLPRPRPRPHSGPRP	0.0307
RRIRRRPPRLPRPRPRPHSPPRP	0.252
RRIRRRPPRLPRPRPRPHTDPRP	-0.215
RRIRRRPPRLPRPRPRPHTIPRP	0.141
RRIRRRPPRLPRPRPRPHVVPRP	0.0538
RRIRRRPPRLPRPRPRPHWDPRP	-0.0203
RRIRRRPPRLPRPRPRPHWFPRP	-0.198
RRIRRRPPRLPRPRPRPHWQPRP	0.28
RRIRRRPPRLPRPRPRPHYCPRP	-0.356
